Reference: patent US20180312565A1 (Affibody, published 2018)

What was measured:
[1] = target: T1, PD-L1 on PD-L1 expressing cells (IFNg-stimulated THP-1 cells; MDA-MB-231 cells) (UniProt Q9NZQ7 19-290, limits assumed); assay: FACS, MDA-MB-231 cells, 0.625 µg/ml; negative control (buffer) 69
T1 construct: whole, on cells
Procedure: Cells incubated with buffer alone were used as negative controls. The cells were incubated for 1 h at 8° C. in the dark, washed twice with 100 μl staining buffer, and resuspended in 100 μl of staining buffer containing 2.5 μg/ml of a goat-anti-human IgG-Alexa488 (Molecular Probes, cat. no. A11013) or, for cells stained with the positive control antibody, goat anti-mouse IgG-Alexa647 antibody (Life Technologies, cat. No. A21236). The cells were incubated for 1 h at 8° C. in the dark, washed twice with 100 μl staining buffer and resuspended in 300 μl of staining buffer. Data from 10,000 cells were obtained using a FACS Calibur ([…]) and the data was analyzed using Flowing software 2.5.0 (Turku University). Mean fluorescence intensity (MFI) was used as a read out of binding capacity.

[2] = target: T2, human PD-L1 Fc Chimera (R&D Systems, cat. no. 156-B7-100) (human, UniProt Q9NZQ7 19-239, biotinylated with Sulfo-NHS-LC-Biotin in ELISA and AlphaLISA; not biotinylated in SPR); assay: SPR capture assay, control
T2 construct: bought; also called hPD-L1; biotinylated hPD-L1; not shown: Fc part of the bought Fc chimera, not described
T2 sequence (Q9NZQ7 19-239, change not shown): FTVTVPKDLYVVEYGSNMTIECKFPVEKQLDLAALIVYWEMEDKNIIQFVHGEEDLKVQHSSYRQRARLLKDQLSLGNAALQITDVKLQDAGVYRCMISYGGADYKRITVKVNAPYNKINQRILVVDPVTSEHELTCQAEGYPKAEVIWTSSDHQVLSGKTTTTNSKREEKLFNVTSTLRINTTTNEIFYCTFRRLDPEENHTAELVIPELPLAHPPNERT

T1 sequence (Q9NZQ7 19-290 limits assumed): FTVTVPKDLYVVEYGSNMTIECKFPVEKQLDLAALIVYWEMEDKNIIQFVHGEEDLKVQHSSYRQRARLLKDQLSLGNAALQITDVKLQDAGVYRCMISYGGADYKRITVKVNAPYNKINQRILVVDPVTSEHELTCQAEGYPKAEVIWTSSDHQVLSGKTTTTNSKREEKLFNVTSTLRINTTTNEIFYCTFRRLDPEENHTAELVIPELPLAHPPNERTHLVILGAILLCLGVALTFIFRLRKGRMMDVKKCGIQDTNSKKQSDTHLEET

Row | MFI [1] | binding result [2] | Binder
1 | 64 |  | ipilimumab (Yervoy, Bristol-Myers Squibb) (antibody, V domains shown) VH: QVQLVESGGGVVQPGRSLRLSCAASGFTFSSYTMHWVRQAPGKGLEWVTFISYDGNNKYYADSVKGRFTISRDNSKNTLYLQMNSLRAEDTAIYYCARTGWLGPFDYWGQGTLVTVSS VL: not shown
2 |  | no binding (tested: 100 or 500 nM PD-L1) | Lam (PD-1 binding monoclonal antibody with the CDR sequences of pembrolizumab) (antibody, human IgG4 S228P, kappa, V domains shown) VH: QVQLVQSGVEVKKPGASVKVSCKASGYTFTNYYMYWVRQAPGQGLEWMGGINPSNGGTNFNEKFKNRVTLTTDSSTTTAYMELKSLQFDDTAVYYCARRDYRFDMGFDYWGQGTTVTVSS VL: EIVLTQSPATLSLSPGERATLSCRASKGVSTSGYSYLHWYQQKPGQAPRLLIYLASYLESGVPARFSGSGSGTDFTLTISSLEPEDFAVYYCQHSRDLPLTFGGGTKVEIKR

The remaining lines, values behind:

Row | Binder | MFI [1] | binding result [2]
3 | Z15170-HCLam (bispecific antibody) heavy: not shown light: EIVLTQSPATLSLSPGERATLSCRASKGVSTSGYSYLHWYQQKPGQAPRLLIYLASYLESGVPARFSGSGSGTDFTLTISSLEPEDFAVYYCQHSRDLPLTFGGGTKVEIKRTVAAPSVFIFPPSDEQLKSGTASVVCLLNNFYPREAKVQWKVDNALQSGNSQESVTEQDSKDSTYSLSSTLTLSKADYEKHKVYACEVTHQGLSSPVTKSFNRGEC | 161 | 
4 | HCLam-Z15170 (bispecific antibody) heavy: not shown light: EIVLTQSPATLSLSPGERATLSCRASKGVSTSGYSYLHWYQQKPGQAPRLLIYLASYLESGVPARFSGSGSGTDFTLTISSLEPEDFAVYYCQHSRDLPLTFGGGTKVEIKRTVAAPSVFIFPPSDEQLKSGTASVVCLLNNFYPREAKVQWKVDNALQSGNSQESVTEQDSKDSTYSLSSTLTLSKADYEKHKVYACEVTHQGLSSPVTKSFNRGEC | 274 | 
